{
  "source": "patent US20050272636A1",
  "about": "“Treatment and diagnosis of a reproductive disorder by measuring or inhibiting interferon-gamma” (Adelaide Research & Innovation Pty Ltd., priority 2002, published 2005)",
  "key": {"[1]": {"target": "T1, IFNγ (Mus musculus, UniProt P01580)", "T1 construct": "purchased R&D Systems, UK", "T1 sequence (P01580 23-155)": "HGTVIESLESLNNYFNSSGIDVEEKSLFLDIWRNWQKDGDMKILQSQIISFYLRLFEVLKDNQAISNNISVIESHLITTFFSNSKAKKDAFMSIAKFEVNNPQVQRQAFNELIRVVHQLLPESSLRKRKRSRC", "assay": "Penicillin inhibition of the IFNγ effect on GM-CSF production in uterine epithelial cells (Example 2)", "type": "cell-based", "details": "DMEM +penicillin versus DMEM -penicillin", "description": "Uterine Epithelial Cell Cultures. Uterine epithelial cells prepared as previously described (Robertson et al., Biol Reprod 46:1069-1079 (1992)) were pooled from 4-6 estrous C57B1/6 or C57B1/6×Balb/c F1 mice and plated in 1 ml culture wells (Nunc, Roskilde, Germany) at 1-2×10^5 cells per ml in 500 μl of Dulbecco's modified Eagles medium containing 10% FCS, […] streptomycin sulphate and […] benzyl penicillin (DMEM +penicillin). After 4 h incubation at 37° C. in 5% CO2 to allow cell adherence, a further 500 μl of DMEM +penicillin, or DMEM +penicillin plus recombinant mouse IFNγ (rIFNγ) and/or recombinant human TGFβ1 (rTGFβ), were added. In some experiments, penicillin-free DMEM (DMEM −penicillin) was used throughout. Culture supernatants were collected and replaced with fresh medium at 16 hours, then collected again 24 hours later, at which time GM-CSF content was determined and adherent cells were quantified as previously described (Robertson et al., Biol Reprod 46:1069-1079 (1992)). […]\nGM-CSF bioassay: GM-CSF was assayed using the GM-CSF dependant cell line FD 5/12, essentially as previously described (Robertson et al., Biol Reprod 46:1069-1079 (1992)). Cell proliferation was determined by pulsing with 1 μCi of [^3H]-thymidine per well for the last 6 h of the assay. […] GM-CSF production is expressed as ng GM-CSF/10^5 cells/24 h. […]"}, "[2]": {"tested_on": "IFNγ", "assay": "Inhibitors and antagonists counteracting the GM-CSF-inhibiting actions of IFNγ in uterine epithelial cells (Example 3)", "type": "cell-based, mouse", "details": "for effect of TGFβ isoform on the inhibitory effect of IFNγ on GM-CSF synthesis: added in combination with IFNγ, dose-responsive, 5 ng/ml greater effect than 0.5 ng/ml", "description": "Several inhibitors and antagonists of IFNγ were tested for their ability to counteract the GM-CSF-inhibiting actions of IFNγ in epithelial cells.\nUterine Epithelial Cell Cultures. Uterine epithelial cells prepared by pancreatin-trypsin digest as previously described (Robertson et al., (1992) Biol. Reprod. 46:1069-1079) were pooled from 4-6 estrous adult C57B1/6×CBA F1 female mice and plated in 1 ml culture wells (Nunc, Roskilde, Germany) at 1-2×10^5 cells per ml in 500 μl of RPMI containing 10% FCS and streptomycin (RPMI-FCS). Penicillin was omitted from culture media except where specified. After 4 h incubation at 37° C. in 5% CO2 to allow cell adherence, a further 500 μl of cytokines or antibodies in RPMI-FCS, or RPMI-FCS alone, were added. Cytokine treatments included recombinant mouse interferon-γ (rmIFNγ; R&D Systems), recombinant human transforming growth factor β1 (rhTGFβ1, R&D Systems), rhTGFβ2 (R&D Systems), rhTGFβ3 (OSI Pharmaceuticals). Antibody treatments included goat anti-mouse IFNγ receptor 1 (αIFNγR; R&D Systems AF1026) and hamster anti-mouse IFNγ (αIFNγ; R&D Systems MAB4851). Culture supernatants were collected and replaced with fresh complete RPMI-FCS alone at 16 hours, then collected again 24 hours later, at which time adherent cells were quantified as previously described (Robertson et al., (1992) Biol. Reprod. 46:1069-1079). The GM-CSF content of 24 h supernatants was determined by GM-CSF bioassay or immunoassay. All treatments were performed in duplicate or triplicate.\nGM-CSF bioassay and immunoassay: Bioactive GM-CSF was assayed using the GM-CSF dependant cell line FD 5/12, essentially as previously described (Robertson et al., (1992) Biol. Reprod. 46:1069-1079). Cell proliferation was determined by the addition of 1 μCi of [^3H]-thymidine per well for the last 6 h of the assay. The minimal detectable amount of GM-CSF was […] The identity of the bioactivity in uterine epithelial cell cultures was confirmed using a goat polyclonal antibody to murine GM-CSF kindly provided by J. Schreurs (DNAX, Palo Alto, Calif.) as previously described (Robertson et al., (1992) Biol. Reprod. 46:1069-1079). GM-CSF immunoactivity was in some experiments measured by commercial mouse GM-CSF specific ELISA (R & D Systems) according to the manufacturer's instructions."}, "[3]": {"tested_on": "human cervical epithelial cells", "assay": "Effect of IFN-γ and TGFβ on GM-CSF synthesis in human cervical epithelial cells (Example 4)", "type": "cell-based", "details": "5.0 ng/ml recombinant human IFN-γ; 12 h; ELISA", "description": "Human cervical epithelial cells were cultured using a modification of the technique described by Rheinwald et al., Cell 1975 3: 33143 (1975). Cervical biopsies were obtained from consenting women undergoing hysterectomy for non-malignant gynaecological indications. All the women were pre-menopausal, but no distinction was made regarding the stage of their menstrual cycle at the time of surgery. The cervical biopsies were placed in ice-cold Hank's balanced salt solution for transport to the laboratory, washed twice in antibiotic-containing medium, and incubated overnight at 4° C. in Dulbecco's modified Eagle's medium (DMEM) containing 5 U dispase (Boehringer Mannheim). Large sheets of keratinocytes were mechanically stripped from the biopsy using sterile forceps after a subsequent 1 h incubation at room temperature. Disaggregation into single cells was facilitated by incubation in DMEM/0.25% trypsin/0.05% collagenase for 30 minutes at 37° C., and repeated aspiration using a needle and syringe. […]\nSupernatant was collected 12 hours later and assayed for GM-CSF activity using a commercial human GM-CSF specific ELISA (R & D Systems) according to the manufacturer's instructions. The GM-CSF content of post-treatment supernatants were normalised to the GM-CSF content of corresponding 12 h (baseline) supernatants and expressed as a percentage of control values."}, "[4]": {"tested_on": "mice", "assay": "Effect of IFN-γ treatment on pregnancy outcome in mice (Example 8)", "type": "in vivo", "details": "for effect on the detrimental effects of IFN-γ on pregnancy outcome: implantation rate, viable versus resorbing fetuses, fetal and placental weight on day 18", "description": "Mice are housed under specific pathogen-free conditions at the University of Adelaide Medical School Animal House on a 12:12 light-dark cycle, and administered food and water ad libitum. Adult Balb/c×C57B1/6 F1 females (7-10 weeks old) are synchronised into estrus by caging in close proximity to males. Estrus is identified on the basis of presence of cornified epithelial cells in vaginal smears prepared at 0900-1000 h daily and examined by phase contrast microscopy. On the day of estrus (day 0) females are caged with proven fertile Balb/k males for natural mating. The day of sighting a vaginal plug is nominated day 1 of pregnancy.\nMice are randomly allocated to one of four groups and treated as follows: Group 1 (100 ng IFN-γ) mice receive three intraperitoneal injections of […] recombinant mouse IFN-γ (rmIFN-γ, R&D Systems) in 200 μl PBS containing 1% bovine serum albumin (PBS-BSA) at 1700 h on day 0, at 1000 h on day 1 and 1700hon day 1.\nGroup 2 (250 ng IFN-γ) receive three injections of 250 ng rmIFN-γ according to the same time schedule.\nGroup 3 (control) receive three injections of PBS-BSA instead of IFN-γ according to the same time schedule.\nGroup 4 (comparison) Mice are mated but otherwise remain untreated.\nTwenty mice per group are used to ensure statistical significance in treatment effects.\nAlternatively, a transcervical delivery route for IFN-γ is used. Treatments are delivered directly into the uterine lumen with the aid of a tom-cat catheter (Sovereign, St Louis Mo.). In mated animals this requires removal of vaginal plugs using forceps to allow transcervical access. Mice are randomly allocated to one of four groups and treated as follows: the first group (100 ng IFN-γ) mice receive three transcervical injections of […] recombinant mouse IFN-γ (rmIFN-γ, R&D Systems) in 200 μl PBS containing 1% bovine serum albumin (PBS-BSA) at 1700 h on day 0, at 1000 h on day 1 and 1700 h on day 1. The second group (25 ng IFN-γ) receive three injections of 25 ng rmIFN-γ according to the same time schedule. The third group (control) receive three injections of PBS-BSA instead of IFN-γ according to the same time schedule. For comparison, a fourth group of mice are mated but otherwise would remain untreated. Twenty mice per group are used to ensure statistical significance in treatment effects.\nPregnant females are sacrificed by cervical dislocation at 1000 h -1200 h on day 18 of gestation. The intact uterus of each female is removed and total, viable and resorbing implantation sites counted. Each viable fetus is dissected from the amniotic sac and umbilical cord, and fetuses and placentae weighed. Placental tissues are fixed in paraformaldehyde and processed for histological staining of paraffin sections, using Masson's trichrome stain."}},
  "data": [
    {"molecule": "CC1(C)S[C@@H]2[C@H](NC(=O)Cc3ccccc3)C(=O)N2[C@H]1C(=O)O", "note": "[penicillin, benzyl penicillin, reference compound]", "values": [
      {"measurement": "ability of penicillin to inhibit the effect of IFNγ on GM-CSF production", "setting": "[1]", "result": "inhibit the effect of IFNγ"},
      {"measurement": "IFNγ concentration required to inhibit GM-CSF synthesis after addition of penicillin", "setting": "[2]; penicillin at 60 μg/ml", "result": "≥ 2.5", "unit": "ng/mL"},
      {"measurement": "effect of penicillin on the GM-CSF inhibiting activity of IFNγ", "setting": "[2]; penicillin at 60 μg/ml", "result": "antagonised the GM-CSF inhibiting activity of IFNγ"}
    ]},
    {"molecule": "IFN-γ: recombinant human IFN-γ (R & D Systems), used on human cervical epithelial cells in Example 4", "values": [
      {"measurement": "effect of IFN-γ on GM-CSF synthesis", "setting": "[3]", "result": "inhibited GM-CSF synthesis"}
    ]},
    {"molecule": "rhTGFβ2: recombinant human TGFβ2 (R&D Systems) (protein, UniProt P61812 303-414, looked up, Transforming growth factor beta-2) Transforming growth factor …: ALDAAYCFRNVQDNCCLRPLYIDFKRDLGWKWIHEPKGYNANFCAGACPYLWSSDTQHSRVLSLYNTINPEASASPCCVSQDLEPLTILYYIGKTPKIEQLSNMIVKSCKCS", "values": [
      {"measurement": "effect on the detrimental effects of IFN-γ on pregnancy outcome", "setting": "[4]", "result": "reverses the detrimental effects of IFN-γ"},
      {"measurement": "effect of TGFβ isoform on the inhibitory effect of IFNγ on GM-CSF synthesis", "setting": "[2]", "result": "counteracted the inhibitory effect"}
    ]},
    {"molecule": "rhTGFβ3: recombinant human TGFβ3 (OSI Pharmaceuticals) (protein, UniProt P10600 301-412, looked up, Transforming growth factor beta-3) Transforming growth factor …: ALDTNYCFRNLEENCCVRPLYIDFRQDLGWKWVHEPKGYYANFCSGPCPYLRSADTTHSTVLGLYNTLNPEASASPCCVPQDLEPLTILYYVGRTPKVEQLSNMVVKSCKCS", "values": [
      {"measurement": "effect on the detrimental effects of IFN-γ on pregnancy outcome", "setting": "[4]", "result": "reverses the detrimental effects of IFN-γ"},
      {"measurement": "effect of TGFβ isoform on the inhibitory effect of IFNγ on GM-CSF synthesis", "setting": "[2]", "result": "counteracted the inhibitory effect"}
    ]},
    {"molecule": "IFN-γ: recombinant human IFN-γ (R & D Systems), used on human cervical epithelial cells in Example 4 (protein, UniProt P01579 24-161, looked up) Interferon gamma: QDPYVKEAENLKKYFNAGHSDVADNGTLFLGILKNWKEESDRKIMQSQIVSFYFKLFKNFKDDQSIQKSVETIKEDMNVKFFNSNKKKRDDFEKLTNYSVTDLNVQRKAIHELIQVMAELSPAAKTGKRKRSQMLFRG", "values": [
      {"measurement": "effect of IFN-γ on pregnancy outcome", "setting": "[4]; peritoneal cavity or uterine lumen, day of estrus and day 1, assessed day 18", "result": "impairs pregnancy outcome"}
    ]}
  ]
}
